Assay results: PMC6048055, “O2-inducible H2O2-forming NADPH oxidase is responsible for the hyper O2 sensitivity of Bifidobacterium longum subsp. infantis” (Scientific Reports, 2018)

Tests used:
[1] = test system: NC(=O)C1=CN([C@@H]2O[C@H](COP(=O)(O)OP(=O)(O)OC[C@H]3O[C@@H](n4cnc5c(N)ncnc54)[C@H](OP(=O)(O)O)[C@@H]3O)[C@@H](O)[C@H]2O)C=CC1; experiment: purified protein; settings: O2 as electron acceptor (air saturated), 50 mM potassium phosphate pH 6.5, 37 °C, apparent Km
[2] = test system: NC(=O)C1=CN([C@@H]2O[C@H](COP(=O)(O)OP(=O)(O)OC[C@H]3O[C@@H](n4cnc5c(N)ncnc54)[C@H](O)[C@@H]3O)[C@@H](O)[C@H]2O)C=CC1; experiment: purified protein; settings: O2 as electron acceptor (air saturated), 50 mM potassium phosphate pH 6.5, 37 °C, apparent Km
[3] = biological target: T1, NADPH oxidase (NPOX) (Bifidobacterium longum, UniProt A0ACD7UUP8); experiment: HPLC of flavin extracted from purified enzyme; UV-Vis spectrum; type: binding; settings: co-purified bound flavin, flavoprotein absorbance maxima […] nm
T1 construct: gene Blon_2447; native enzyme purified from B. infantis cells; 254 residues; 29 kDa by SDS-PAGE
T1 sequence (A0ACD7UUP8 52-305): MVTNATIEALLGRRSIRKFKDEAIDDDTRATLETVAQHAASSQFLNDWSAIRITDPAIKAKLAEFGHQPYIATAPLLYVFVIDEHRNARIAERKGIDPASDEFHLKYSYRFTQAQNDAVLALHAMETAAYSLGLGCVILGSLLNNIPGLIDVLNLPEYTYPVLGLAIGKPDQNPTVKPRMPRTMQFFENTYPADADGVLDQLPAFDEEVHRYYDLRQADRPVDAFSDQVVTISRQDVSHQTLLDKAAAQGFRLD

Molecule | Km [1] | Km [2] | HPLC of flavin extracted from purified enzyme; UV-Vis spectrum [3]
NADPH oxidase (NPOX) (Bifidobacterium longum subsp. infantis ATCC 15697 = JCM 1222 = DSM 20088) | 1.38 ± 0.12 µM | 113.3 ± 7.3 µM | –
Cc1cc2nc3c(=O)[nH]c(=O)nc-3n(C[C@H](O)[C@H](O)[C@H](O)COP(=O)(O)O)c2cc1C [FMN] | – | – | The bound flavin was identified as FMN by HPLC analysis
